Reference: patent US20220143178A1

Tests used:
[1] = target: Pertuzumab-specific HER2 antigen (Rhinogen®); assay: ELISA; antigen coated at 2 µg/ml, HRP anti-human light chain detection
[2] = target: Pertuzumab-specific HER2 antigen (Rhinogen®); assay: SPR, Biacore T200; IgG captured by anti-human Fc on CM5 chip, antigen flowed over

Substance: Pertuzumab (antibody)
- EC50 [1]: 0.0153 µg/mL
- Kd [2]: 2.81 nM
